Assay [1] addresses T1, human pregnancy-associated plasma protein-A (PAPP-A) (human, UniProt Q13219 82-1627).
T1 construct: Recombinant, from 293T cells; also called human PAPP-A; full-length PAPP-A
Nature of the assay: ELISA. (In general: In an ELISA, binding on a coated surface is turned into a signal by an enzyme label.)

The target in assay [2] is T2, PA 1-950 (fragment of human PAPP-A, residues 1-950) (human, UniProt Q13219 82-1030).
T2 sequence: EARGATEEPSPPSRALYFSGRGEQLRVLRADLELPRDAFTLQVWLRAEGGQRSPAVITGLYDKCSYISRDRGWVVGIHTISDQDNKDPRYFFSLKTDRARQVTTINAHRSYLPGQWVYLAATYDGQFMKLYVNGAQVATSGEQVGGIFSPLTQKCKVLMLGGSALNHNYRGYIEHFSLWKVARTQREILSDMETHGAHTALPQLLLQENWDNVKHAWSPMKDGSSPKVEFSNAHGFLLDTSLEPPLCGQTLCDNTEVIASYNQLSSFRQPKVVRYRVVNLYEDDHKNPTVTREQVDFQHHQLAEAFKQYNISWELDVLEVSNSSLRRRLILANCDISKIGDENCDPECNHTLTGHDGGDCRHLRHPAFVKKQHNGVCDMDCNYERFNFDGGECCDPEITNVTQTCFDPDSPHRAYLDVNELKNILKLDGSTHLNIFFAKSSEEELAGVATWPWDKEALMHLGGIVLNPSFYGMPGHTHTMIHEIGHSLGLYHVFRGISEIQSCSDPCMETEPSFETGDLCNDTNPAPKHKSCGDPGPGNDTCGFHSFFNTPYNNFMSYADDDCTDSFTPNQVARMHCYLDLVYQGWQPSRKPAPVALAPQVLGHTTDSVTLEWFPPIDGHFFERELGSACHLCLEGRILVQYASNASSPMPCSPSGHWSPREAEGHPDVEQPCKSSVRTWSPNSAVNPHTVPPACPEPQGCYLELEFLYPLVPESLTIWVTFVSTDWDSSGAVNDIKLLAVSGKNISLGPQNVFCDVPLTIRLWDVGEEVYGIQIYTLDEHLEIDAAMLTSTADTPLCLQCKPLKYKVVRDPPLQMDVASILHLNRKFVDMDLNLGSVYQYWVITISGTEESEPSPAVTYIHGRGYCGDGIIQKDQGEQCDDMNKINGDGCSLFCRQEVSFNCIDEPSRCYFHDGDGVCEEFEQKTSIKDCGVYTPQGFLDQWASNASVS
Nature of the assay: binding of PAC5 to fragments of human PAPP-A.

The target in assay [3] is T3, PA 937-1547 (fragment of human PAPP-A, residues 937-1547) (human, UniProt Q13219 1017-1627).
T3 sequence: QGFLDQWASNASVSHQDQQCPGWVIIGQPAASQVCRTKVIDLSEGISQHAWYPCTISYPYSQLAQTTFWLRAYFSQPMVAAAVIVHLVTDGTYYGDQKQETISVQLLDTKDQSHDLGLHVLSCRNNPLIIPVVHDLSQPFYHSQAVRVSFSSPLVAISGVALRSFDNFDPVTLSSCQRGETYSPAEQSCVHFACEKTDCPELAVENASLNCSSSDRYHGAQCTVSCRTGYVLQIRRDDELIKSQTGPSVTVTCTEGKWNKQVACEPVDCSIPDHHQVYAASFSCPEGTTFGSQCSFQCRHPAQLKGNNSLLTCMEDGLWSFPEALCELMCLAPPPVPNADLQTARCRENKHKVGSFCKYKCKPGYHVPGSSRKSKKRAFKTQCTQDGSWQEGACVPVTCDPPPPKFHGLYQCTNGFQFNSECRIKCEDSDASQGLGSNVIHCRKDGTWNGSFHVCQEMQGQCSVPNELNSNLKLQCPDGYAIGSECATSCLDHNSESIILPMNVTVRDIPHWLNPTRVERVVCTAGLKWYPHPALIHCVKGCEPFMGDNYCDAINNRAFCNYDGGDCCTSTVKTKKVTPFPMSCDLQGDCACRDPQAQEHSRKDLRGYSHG
As to the kind of experiment: binding of PAC5 to fragments of human PAPP-A.

Assay [4] concerns the target T4, PA 1-599 (fragment of human PAPP-A, residues 1-599) (human, UniProt Q13219 82-679).
T4 sequence: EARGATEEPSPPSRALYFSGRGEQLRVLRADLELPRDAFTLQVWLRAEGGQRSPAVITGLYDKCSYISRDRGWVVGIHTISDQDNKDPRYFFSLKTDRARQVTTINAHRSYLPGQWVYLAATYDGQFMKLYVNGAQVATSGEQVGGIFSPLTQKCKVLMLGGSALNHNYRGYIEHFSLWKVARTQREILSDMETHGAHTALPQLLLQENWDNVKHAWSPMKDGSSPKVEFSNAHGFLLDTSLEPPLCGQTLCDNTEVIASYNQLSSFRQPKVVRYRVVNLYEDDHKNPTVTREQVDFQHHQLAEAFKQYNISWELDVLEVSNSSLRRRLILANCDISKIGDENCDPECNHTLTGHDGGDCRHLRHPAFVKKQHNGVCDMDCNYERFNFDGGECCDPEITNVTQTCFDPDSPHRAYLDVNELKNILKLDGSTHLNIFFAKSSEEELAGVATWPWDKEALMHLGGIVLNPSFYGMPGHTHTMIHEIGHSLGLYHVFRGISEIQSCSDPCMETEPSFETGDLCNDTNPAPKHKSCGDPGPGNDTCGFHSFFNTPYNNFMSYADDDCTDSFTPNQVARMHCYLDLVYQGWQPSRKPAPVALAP
As to the kind of experiment: binding of PAC5 to fragments of human PAPP-A.

In a further assay the target is human PAPP-A(D1484A) (human, UniProt Q13219 82-1627). Nature of the assay: ELISA, PAPP-A mutant captured with polyclonal PAPP-A antibodies. Here is the method:
(§1) A, PAC1 binding to human PAPP-A/PAPP-A2 chimeras or truncated human PAPP-A variants analyzed by ELISA. Sequence derived from PAPP-A is shown by open bars, and absence of binding (−) or binding (+) is indicated. […] Samples with or without EDTA (10 mM) were injected (120 s) followed by dissociation (180 s) (solid lines). […] The absence of binding (−) or binding (+) is indicated. PAC5, which was used as a positive control, binds to an epitope of PAPP-A located N-terminal to CCP1.
(§2) Determination of antibody specificity and mapping of antibody binding—Mapping of antibody binding was carried out by ELISA using PAPP-A/PAPP-A2 chimeric proteins, and mutated variants of PAPP-A. The proteins were immobilized with polyclonal PAPP-A antibodies, and binding of phage antibodies were analyzed as detailed above.

In a further assay the target is human PAPP-A(D1499A) (human, UniProt Q13219 82-1627). The assay is described as above. Here is the method:
as §1, §2

A further assay deals with human PAPP-A(D1502A) (human, UniProt Q13219 82-1627). The description is as above. Here is the method: as §1, §2

We go through one molecule from patent publication US20100310646A1 (AARHUS UNIVERSITET, published 2010).

B1: PAC5 (PAPP-A non-exosite antibody, scFv) (scFv)
scFv: EVQLLESGGGLVQPGGSLRLSCAASGFTFSSYAMSWVRQAPGKGLEWVSAISPAGVMTQYADSVKGRFTISRDNSKNTLYLQMNSLRAEDTAVYYCAKQQGGFDYWGQGTLVTVSSGGGGSGGGGSGGGGSTDIQMTQSPSSLSASVGDRVTITCRASQSISSYLNWYQQKPGKAPKLLIYRASALQSGVPSRFSGSGSGTDFTLTISSLQPEDFATYYCQQPIARPPTFGQGTKVEIKRAAAHHHHHHGAAEQKLISEEDLNGAA
notes: Obtained by screening on full-length human PAPP-A and used as a control antibody in the scFv format; also called clone PAC5
Regarding B1, the binding result was “binds” in assay [1]; “binds” in assay [2]; “no binding” in assay [3]; “no binding” in assay [4]; “binds” in the assay with human PAPP-A(D1484A); “binds” with human PAPP-A(D1499A). Moreover, the binding result with human PAPP-A(D1502A) is “binds”.
